The assay has as its target dCas9-24XGP41 (Streptococcus pyogenes serotype M1) (UniProt Q99ZW2). The experiment in a line: cell-based or functional assay.

“NbGP41-sfGFP-VP64-GB1 (from UniProt P06654 228-282) (VHH)” returned an expression of CLV3 in homozygous Setaria MoonTag lines against wild-type ME34 (RT-qPCR) of 100 fold.
